T1: human CEACAM1, recombinant (R&D Systems #2244-CM-050) (human, UniProt P13688 35-428)
T1 construct: also called hCEACAM-1
T1 sequence (looked up): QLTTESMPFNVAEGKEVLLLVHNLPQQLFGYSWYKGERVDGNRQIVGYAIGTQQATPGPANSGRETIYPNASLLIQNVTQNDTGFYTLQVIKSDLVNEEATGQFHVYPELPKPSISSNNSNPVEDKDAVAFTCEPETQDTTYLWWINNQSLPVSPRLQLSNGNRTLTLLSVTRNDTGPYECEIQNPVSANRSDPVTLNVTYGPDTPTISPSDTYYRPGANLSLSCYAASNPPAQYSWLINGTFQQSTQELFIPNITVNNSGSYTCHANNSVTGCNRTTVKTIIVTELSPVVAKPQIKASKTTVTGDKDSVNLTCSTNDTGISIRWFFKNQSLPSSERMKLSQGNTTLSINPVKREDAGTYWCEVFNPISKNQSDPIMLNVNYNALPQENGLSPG

T2: CEACAM-8, recombinant (R&D Systems #9639-CM-050) (UniProt P31997 35-320)
T2 sequence (looked up): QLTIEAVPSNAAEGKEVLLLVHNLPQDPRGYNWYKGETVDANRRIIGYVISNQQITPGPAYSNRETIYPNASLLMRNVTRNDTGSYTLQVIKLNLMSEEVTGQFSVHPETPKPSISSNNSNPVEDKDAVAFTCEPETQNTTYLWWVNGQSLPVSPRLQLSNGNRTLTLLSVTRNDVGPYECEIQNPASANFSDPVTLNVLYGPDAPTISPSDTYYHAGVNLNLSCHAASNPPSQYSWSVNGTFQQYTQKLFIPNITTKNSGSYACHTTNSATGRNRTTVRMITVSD

T3: human CEACAM6, recombinant (R&D Systems #3934-CM-050) (human, UniProt P40199 35-320)
T3 construct: also called hCEACAM-6
T3 sequence (looked up): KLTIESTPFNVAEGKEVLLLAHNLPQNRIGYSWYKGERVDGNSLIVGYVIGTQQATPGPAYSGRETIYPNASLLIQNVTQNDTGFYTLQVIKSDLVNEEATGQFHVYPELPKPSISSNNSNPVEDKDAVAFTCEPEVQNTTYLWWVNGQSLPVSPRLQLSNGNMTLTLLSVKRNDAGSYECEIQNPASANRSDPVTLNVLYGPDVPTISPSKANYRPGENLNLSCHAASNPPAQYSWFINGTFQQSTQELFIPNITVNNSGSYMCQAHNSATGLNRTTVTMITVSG

T4: human CEACAM1 expressed on CHO cells (human, UniProt P13688 35-526)
T4 construct: whole, on cells; also called CHO-CEACAM1; CEACAM1 on cells
T4 sequence (looked up): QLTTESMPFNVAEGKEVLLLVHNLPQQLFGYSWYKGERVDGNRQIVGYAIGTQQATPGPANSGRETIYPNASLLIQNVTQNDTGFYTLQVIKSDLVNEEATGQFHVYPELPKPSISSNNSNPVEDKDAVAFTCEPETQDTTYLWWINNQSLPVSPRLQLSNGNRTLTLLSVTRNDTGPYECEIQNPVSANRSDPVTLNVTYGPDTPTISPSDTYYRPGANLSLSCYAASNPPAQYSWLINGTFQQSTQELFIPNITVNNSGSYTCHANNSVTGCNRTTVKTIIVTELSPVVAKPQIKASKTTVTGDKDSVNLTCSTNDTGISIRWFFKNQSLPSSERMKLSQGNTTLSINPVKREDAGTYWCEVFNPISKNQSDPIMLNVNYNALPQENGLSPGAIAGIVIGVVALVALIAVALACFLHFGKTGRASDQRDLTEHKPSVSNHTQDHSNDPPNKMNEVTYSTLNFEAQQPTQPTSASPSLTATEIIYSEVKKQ

T5: human CEACAM5, recombinant (R&D Systems #4128-CM-050) (human, UniProt P06731 35-685)
T5 construct: Bought; coated in ELISA and used as monomeric analyte in Octet; also called hCEACAM-5; Human CEACAM5-His; not shown: His tag
T5 sequence (looked up): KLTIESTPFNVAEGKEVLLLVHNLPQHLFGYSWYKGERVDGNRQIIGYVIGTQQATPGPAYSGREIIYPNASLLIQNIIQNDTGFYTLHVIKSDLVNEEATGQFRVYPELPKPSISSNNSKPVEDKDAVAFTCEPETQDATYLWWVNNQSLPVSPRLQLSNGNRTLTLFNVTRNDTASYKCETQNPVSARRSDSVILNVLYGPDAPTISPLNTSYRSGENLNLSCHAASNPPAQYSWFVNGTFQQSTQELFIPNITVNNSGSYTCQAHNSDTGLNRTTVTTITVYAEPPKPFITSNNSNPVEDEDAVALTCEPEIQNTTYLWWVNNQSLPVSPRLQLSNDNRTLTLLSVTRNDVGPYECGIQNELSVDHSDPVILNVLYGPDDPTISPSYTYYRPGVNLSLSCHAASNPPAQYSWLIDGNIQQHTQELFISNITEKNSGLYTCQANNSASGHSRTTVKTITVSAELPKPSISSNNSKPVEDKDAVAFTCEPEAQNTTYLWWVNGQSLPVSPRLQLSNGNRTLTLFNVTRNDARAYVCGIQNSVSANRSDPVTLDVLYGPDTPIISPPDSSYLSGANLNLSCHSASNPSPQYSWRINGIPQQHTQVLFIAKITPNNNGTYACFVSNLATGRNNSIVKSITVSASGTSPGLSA


Columns and labels:
[1] = molecular target: T1, human CEACAM1, recombinant (R&D Systems …); test: ELISA, cross-reactivity to other CEA family members
Description: (§1) 96-well plates were coated with 0.5 μg/mL antigen, hCEACAM-5 (4128-CM-050, R&D Systems), hCEACAM-1 (2244-CM-050, R&D Systems), hCEACAM-6(3934-CM-050, R&D Systems) or CEACAM-8 (9639-CM-050, R&D Systems) in PBS over night at 4° C. After washing with PBS/0.05% Tween 20 (PBST), the plates were blocked with PBST, 2% BSA for at least 30 minutes at room temperature before a second round of washing. […] After washing, plates were incubated with 50 μl detection antibody (0.5 μg/ml HRP conjugated goat anti human-kappa light chain, #STAR127P, AbD Serotec). Finally, a final round of washing was performed and bound complexes detected using SuperSignal Pico Luminescent as substrate and luminescence signals were measured using Fluostar Optima.

[2] = molecular target: T2, CEACAM-8, recombinant (R&D Systems …); test: as above
Description: as §1

[3] = molecular target: T3, human CEACAM6, recombinant (R&D Systems …); test: as above
Description: as §1

[4] = molecular target: T4, human CEACAM1 expressed on CHO cells; test: flow cytometry, transfected CHO cells, IgG1
Source text: Binding of the antibodies was detected using fluorochrome-conjugated anti-human IgG and analysed using flow cytometry.

[5] = molecular target: T5, human CEACAM5, recombinant (R&D Systems …); test: Octet BLI, IgG1 captured on AHC tips, CEACAM5-His in solution, 1:1 fit
Description: Kinetic measurements were performed in the Octet RED96 platform using several different setups. Monoclonal antibodies (listed in Table 9), serially diluted ½ starting at 100 nM, were captured to anti human IgG Fc Capture (AHC) Biosensor tips (Sartorius #18-5060). Human CEACAM5-His (R&D Systems #4128-CM-050) diluted in 1× kinetic buffer (Sartorius) at 100 nM was then added. Binding kinetics was studied in 1× kinetic buffer where association was allowed for 300 sec followed by dissociation for 600 sec. Sensor tips were regenerated with 10 mM Glycine pH 1.7. Data generated were referenced by subtracting blank or parallel buffer blank, the baseline was aligned to the y-axis, inter-step correction by alignment against dissociation was performed and the data was smoothed by Savitzky-Golay filter in the data analysis software (v9.0.0.14). The processed data was fitted using a 1:1 Langmuir binding model with R² or X² as a measurement of fitting accuracy.

[6] = molecular target: T6, biotinylated human CD40-mouse Fc (Ancell #504-030) (human, UniProt P25942 21-193, biotinylated (site not stated)); test: dual-target ELISA: hCEACAM-5 coated, bsAb titrated, detected with biotinylated hCD40-muIg and streptavidin-HRP, luminescence; signal needs both targets bound
T6 construct: Bought; also called hCD40-muIg; CD40mFc-biotin; not shown: mouse Ig Fc
T6 sequence (P25942 21-193): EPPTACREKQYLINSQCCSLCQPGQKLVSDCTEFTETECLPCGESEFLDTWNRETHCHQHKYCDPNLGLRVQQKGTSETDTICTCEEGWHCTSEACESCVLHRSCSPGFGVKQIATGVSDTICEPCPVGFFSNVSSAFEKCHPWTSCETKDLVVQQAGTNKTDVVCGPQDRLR
Description: (§2) 96-well plates were coated with 0.5 μg/mL antigen, hCEACAM-1 (2244-CM-050, R&D Systems), hCEACAM-5 (4128-CM-050, R&D Systems), hCEACAM-6 (3934-CM-050, R&D Systems) or CEACAM-8 (9639-CM-050, R&D Systems) in PBS over night at 4° C. After washing in PBS/0.05% Tween 20 (PBST), the plates were blocked with PBST, 2% BSA for at least 30 minutes at room temperature before a second round of washing. RUBY bsAbs, diluted in PBST, 0.5% BSA, were then added and allowed to bind for at least 1 hour at room temperature. […] Finally, a final round of washing was performed and bound complexes detected using SuperSignal Pico Luminescent as substrate and luminescence signals were measured using Fluostar Optima.

[7] = molecular target: T5, human CEACAM5, recombinant (R&D Systems …); test: as above
Description: as §2

[8] = molecular target: T5, human CEACAM5, recombinant (R&D Systems …); test: ELISA, antigen coated at 0.5 µg/mL, bsAb titrated, anti-human kappa-HRP, luminescence
Description: as §2

Row | Binder | binding result [1] | binding result [2] | binding result [3] | binding result [4] | Kd [5] | koff [5] | kon [5] | binding result [6] | EC50 (read off the curve) [7] | EC50 (read off the curve) [8]
1 | AC_05060 (antibody, human IgG1, kappa, V domains shown) VH: EVQLLESGGGLVQPGGSLRLSCAASGFTFGSYYMSWVRQAPGKGLEWVSGISGYGYYTGYADSVKGRFTISRDNSKNTLYLQMNSLRAEDTAVYYCARHGYGVIDYWGQGTLVTVSS VL: DIQMTQSPSSLSASVGDRVTITCRASQSIRDYLNWYQQKPGKAPKLLIYAASSLQSGVPSRFSGSGSGTDFTLTISSLQPEDFATYYCQQGTFPFTFGQGTKLEIKR | no binding (tested: 0.4 µg/ml) | no binding (tested: 0.4 µg/ml) | no binding (tested: 0.4 µg/ml) | no binding (tested: 0.5 and 5 µg/ml) | 6 nM | 0.002 s⁻¹ | 400000 M⁻¹ s⁻¹ |  |  | 
2 | AC_05064 (antibody, human IgG1, kappa, V domains shown) VH: not shown VL: DIQMTQSPSSLSASVGDRVTITCRASQSISSYLNWYQQKPGKAPKLLIYAASSLQSGVPSRFSGSGSGTDFTLTISSLQPEDFATYYCQQYPWYFPYTFGQGTKLEIKR | no binding (tested: 0.4 µg/ml) | no binding (tested: 0.4 µg/ml) | no binding (tested: 0.4 µg/ml) | no binding (tested: 0.5 and 5 µg/ml) | 0.4 nM | 6e-05 s⁻¹ | 100000 M⁻¹ s⁻¹ |  |  | 
3 | Multi39 (bispecific antibody, Optimised RUBY format, CD40xCEACAM5; copies: 2 + 2 + 2) heavy 1: not shown light: not shown heavy 2: EVQLLESGGGLVQPGGSLRLSCAASGFTFYDHAMSWVREAPGKGLEWVSAISGSYGSTGYADSVKGRFTISRDNSKNTLYLQMNSLRAEDTAVYYCARWGGWAGDIDYWGQGTLVTVSSASTKGPSVFPLAPSSKSTSGGTAALGCLVKDYFPEPVTVSWNSGALTSGVHTFPAVLQSSGLYSLTSVVEVPSSSLGTQTYICNVNHKPSNTKVDKKVEPKSC |  |  |  |  |  |  |  | binds | ~3 nM | ~1 nM
4 | AC_05061 (antibody, human IgG1, kappa, V domains shown) VH: not shown VL: DIQMTQSPSSLSASVGDRVTITCRASQSISSYLNWYQQKPGKAPKLLIYAASSLQSGVPSRFSGSGSGTDFTLTISSLQPEDFATYYCQQGAYVPYTFGQGTKLEIKR | no binding (tested: 0.4 µg/ml) | no binding (tested: 0.4 µg/ml) | no binding (tested: 0.4 µg/ml) | no binding (tested: 0.5 and 5 µg/ml) | 20 nM | 0.002 s⁻¹ | 100000 M⁻¹ s⁻¹ |  |  | 
5 | AC_05062 (antibody, human IgG1, kappa, V domains shown) VH: not shown VL: DIQMTQSPSSLSASVGDRVTITCRASQAISGYLNWYQQKPGKAPKLLIYSASSLQSGVPSRFSGSGSGTDFTLTISSLQPEDFATYYCQQSYSTPYTFGQGTKLEIKR | no binding (tested: 0.4 µg/ml) | no binding (tested: 0.4 µg/ml) | no binding (tested: 0.4 µg/ml) | no binding (tested: 0.5 and 5 µg/ml) | 0.9 nM | 0.002 s⁻¹ | 2e+06 M⁻¹ s⁻¹ |  |  | 

Source: US20260146107A1 (ALLIGATOR BIOSCIENCE, published 2026)
